In assay [1] the target is T1, HER4 (human, UniProt Q15303 26-649, limits assumed).
T1 construct: also called ErbB4
T1 sequence (looked up): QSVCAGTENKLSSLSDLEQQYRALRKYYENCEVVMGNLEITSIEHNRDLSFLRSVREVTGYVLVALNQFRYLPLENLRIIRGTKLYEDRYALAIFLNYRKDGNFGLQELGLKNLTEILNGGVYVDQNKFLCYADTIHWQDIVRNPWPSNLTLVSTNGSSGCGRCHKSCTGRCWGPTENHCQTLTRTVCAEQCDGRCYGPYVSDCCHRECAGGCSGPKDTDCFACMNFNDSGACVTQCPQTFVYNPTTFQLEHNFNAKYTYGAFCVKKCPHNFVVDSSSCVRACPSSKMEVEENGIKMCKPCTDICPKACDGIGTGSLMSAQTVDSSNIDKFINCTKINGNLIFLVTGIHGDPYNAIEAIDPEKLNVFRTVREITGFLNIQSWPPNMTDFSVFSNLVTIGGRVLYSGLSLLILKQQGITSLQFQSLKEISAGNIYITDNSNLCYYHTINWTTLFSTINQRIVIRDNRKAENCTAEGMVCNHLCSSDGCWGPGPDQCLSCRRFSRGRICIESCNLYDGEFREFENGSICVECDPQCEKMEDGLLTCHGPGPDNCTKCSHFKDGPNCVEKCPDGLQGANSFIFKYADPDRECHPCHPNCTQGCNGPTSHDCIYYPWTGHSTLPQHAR
Kind of assay: ELISA, coated HER4, antibody in 3-fold dilutions. (In general: In an ELISA, binding on a coated surface is turned into a signal by an enzyme label.)

Assay [2] deals with T2, HER2 (human, UniProt P04626 23-652, limits assumed).
T2 construct: also called ErbB2
Put plainly: ELISA, coated HER2, antibody in 3-fold dilutions.

The target in assay [3] is T3, hEGFR/ECD-his (自制的C-末端具有his标签的人EGFR胞外域蛋白全长) (human, UniProt P00533 25-645).
T3 construct: extracellular domain; Home-made antigen; also called hEGFR/EDC-his; hEGFR/EGFR-his; not shown: C-terminal his tag
Kind of assay: BLI (ForteBio Qke), antibody on Protein A probes, hEGFR in solution from 20 ug/mL in 1:2 dilutions. Background: In BLI a coated tip is dipped into the sample, and binding shifts an interference pattern.

The target of assay [4] is T3, hEGFR/ECD-his …. Put plainly: ELISA, coated hEGFR/ECD-his 1 ug/mL, anti-hIgG Fc-HRP.
Assay [5] addresses T4, HER3 (human, UniProt P21860 20-643, limits assumed).
T4 construct: also called ErbB3
Kind of assay: ELISA, coated HER3, antibody in 3-fold dilutions.

This note sets out measurements from patent CN116333117A (LAITEKANG SUZHOU BIOPHARMACEUTICAL CO LTD, dated 2023).

T4 sequence (P21860 20-643 limits assumed): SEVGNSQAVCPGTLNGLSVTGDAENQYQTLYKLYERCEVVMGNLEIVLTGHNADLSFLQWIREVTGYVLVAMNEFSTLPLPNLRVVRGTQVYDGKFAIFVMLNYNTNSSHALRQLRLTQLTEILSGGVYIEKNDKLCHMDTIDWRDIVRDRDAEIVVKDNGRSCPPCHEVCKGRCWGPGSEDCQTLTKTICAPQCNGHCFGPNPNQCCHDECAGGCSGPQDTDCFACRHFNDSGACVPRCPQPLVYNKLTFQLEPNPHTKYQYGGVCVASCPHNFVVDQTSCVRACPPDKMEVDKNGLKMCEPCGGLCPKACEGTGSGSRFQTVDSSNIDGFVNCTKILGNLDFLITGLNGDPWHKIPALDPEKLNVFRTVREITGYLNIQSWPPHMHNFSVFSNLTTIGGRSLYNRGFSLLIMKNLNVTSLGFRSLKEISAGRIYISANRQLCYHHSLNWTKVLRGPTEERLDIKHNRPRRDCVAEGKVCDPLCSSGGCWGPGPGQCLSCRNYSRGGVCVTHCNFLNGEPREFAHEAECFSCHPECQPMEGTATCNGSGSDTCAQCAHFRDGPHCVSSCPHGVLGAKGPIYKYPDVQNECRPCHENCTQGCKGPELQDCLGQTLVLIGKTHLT

B1: mouse anibody1129 (mAb1129) (antibody, V domains shown)
VH: DVMLVESGGGLVKPGGSLKLSCAASGFAFSNYDMSWVRQTPEKRLEWVAYISSGGDITYYLDTVKGRFTISRDNAKNTLYLQMSSLKSEDTAMYYCARSHYGYYGDTMDYWGQGTSVTVSS
VL: DVVMTQTPLSLPVSLGDQASISCRSSQSLVHSNGNTYLHWYLQKPGQSPKLLIYKVSNRFSGVPDRFSGSGSGTDFTLKISRVEAEDLGVYFCSQSTHVPPTFGGGTKLEIK
notes: also called 抗EGFR抗体mAb1129; 小鼠抗EGFR抗体; not shown: human kappa light chain constant region
For orientation: Kd means the equilibrium constant for the complex coming apart. One may read the EC50 as the concentration needed to bring the measured effect to its halfway point. B1: the binding result in assay [1], in assay [2] and in assay [5] was “no binding (tested: 起始浓度为2μg/mL)” throughout. This molecule also gave a Kd in assay [3] of about 2.03 nM. In assay [4], this molecule gave an EC50 of about 0.0199 mg/L.
